Results published in the supplement of paper PMC10126150.
± gives the standard deviation of the averaged measurements.

The sequences below were run on ATP (assay: switch fluorescence ratio, 500 uM ATP over buffer (Cy3 cluster intensity, sum of 5 cycles each) (fold (ratio)); higher = stronger signal-on switching upon ATP binding; sequences stand for … in TCGTCGGCAGCGTCAGATGTGTATAAGAGACAGTTTTTTTTTTTTTTTTTTTTTTTTT…TC). Details: aptamer strand: ATP DNA aptamer (quencher-CACCTGGGGGAGTATTGCGGAGGAAGG + anchor), 100 nM annealed; ATP concentration: 500 uM.
Summary of the method: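 Clusters carrying Cy3-labelled switching strands on a modified Illumina MiSeq flow-cell were annealed to 100 nM quencher-labelled ATP aptamer and imaged in selection buffer. They were imaged again after 15 min with 500 uM ATP at 22 °C, over five buffer/ATP cycles with NaOH stripping and re-annealing in between. For each cluster, the fluorescence ratio is the summed Cy3 intensity of the target cycles divided by that of the buffer cycles, averaged per switch-domain sequence. Clusters outside 100-1000 RFU were left out.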
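Note: ATP exposure 15 min at 22 °C before imaging.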

In order of rising switch fluorescence ratio:
1. GCTGGGTATT  0.9435 ± 0.0054
2. GCTGGGAATA  0.9499 ± 0.0028
3. GCTGGGCGGC  0.95 ± 0.014
4. GCGTCGCTTT  0.952 ± 0.046
5. GCTGGGCACG  0.954 ± 0.015
6. GCGTTAAGCA  0.968 ± 0.07
7. GCTATAAGTG  0.969 ± 0.027
8. GCTGCTAGTG  0.97 ± 0.017
9. GCGTTTTCGT  0.972 ± 0.013
10. GCTAGGGCGT  0.972 ± 0.051
11. GCGTATGGGG  0.977 ± 0.027
12. GCTAATGGTC  0.977 ± 0.085
13. GCTCTTATTA  0.977 ± 0.021
14. GCTAGAAATG  0.978 ± 0.043
15. GCGTCGGTGT  0.98 ± 0.01
16. GCTGAACTTC  0.9804 ± 0.0089
17. GCTCTCTTTT  0.9805 ± 0.0037
18. GCTGAATAAG  0.9815 ± 0.0088
19. GCTGGGGGAG  0.982 ± 0.067
20. GCTCTTTGAC  0.987 ± 0.029
21. GCTCATAGAT  0.988 ± 0.013
22. GCTGATGGTG  0.989 ± 0.02
23. GCGTCTGGGC  0.992 ± 0.015
24. GCTGGGCATT  0.99173 ± 0.00022
25. GCTATGATAA  0.9933 ± 0.0072
26. GCTATTGGAA  0.993 ± 0.022
27. GCTGACTGGT  0.9939 ± 0.001
28. GCTATGGGAT  0.995 ± 0.04
29. GCGTTTAATA  0.997 ± 0.014
30. GCTATGCCTA  0.997 ± 0.023
31. GCTCTTTTGG  0.997 ± 0.019
32. GCGTGGGTTG  0.998 ± 0.048
33. GCTAATATGG  0.998 ± 0.044
34. GCTAATGTTT  0.998 ± 0.031
35. GCTAGCCAAA  0.998 ± 0.011
36. GCTATCTGGA  0.998 ± 0.031
37. GCGTCTATTG  0.9987 ± 0.0051
38. GCTCTTGGGC  0.999 ± 0.012
39. GCTGATGCGG  0.999 ± 0.012
40. GCTAAAATTT  1 ± 0.029
41. GCTGAAAGTG  1 ± 0.057
42. GCTGGGGGGT  1 ± 0.044
43. GCTGGTATTG  1 ± 0.031
44. GCGTAGATGG  1.006 ± 0.0087
45. GCGTGCTGTA  1.013 ± 0.006
46. GCGTTAGCCA  1.01 ± 0.022
47. GCTAATGTTA  1.01 ± 0.03
48. GCTAATTATA  1.01 ± 0.015
49. GCTAGTAAGA  1.014 ± 0.008
50. GCTATATAGT  1.01 ± 0.011
51. GCTATATGGC  1.01 ± 0.024
52. GCTCAAGGTA  1.006 ± 0.0044
53. GCTGCTGTAT  1.01 ± 0.022
54. GCTGGAGGTC  1.01 ± 0.03
55. GCTGGCTGGC  1.01 ± 0.11
56. GCGTATGCCC  1.019 ± 0.0062
57. GCGTGTGGGG  1.02 ± 0.021
58. GCGTGTGGTC  1.02 ± 0.039
59. GCGTGTGGTG  1.02 ± 0.043
60. GCGTGTTAGT  1.023 ± 0.0021
61. GCGTTGCAGG  1.02 ± 0.018
62. GCTAGATCAC  1.02 ± 0.025
63. GCTAGCGTGG  1.02 ± 0.091
64. GCTAGCTCAG  1.023 ± 0.008
65. GCTATTATAT  1.02 ± 0.015
66. GCTCAATTGG  1.018 ± 0.006
67. GCTCATAGCA  1.02 ± 0.022
68. GCTCGACTTT  1.02 ± 0.012
69. GCTGAGGTGA  1.02 ± 0.042
70. GCGTATTGGC  1.03 ± 0.013
71. GCGTGCAATG  1.026 ± 0.0018
72. GCGTGCAGGC  1.03 ± 0.023
73. GCGTGCGGGC  1.03 ± 0.043
74. GCGTGCGGGG  1.028 ± 0.0098
75. GCGTTTAGGG  1.03 ± 0.054
76. GCTATGAACC  1.0349 ± 0.0008
77. GCTCAGTAGT  1.03 ± 0.027
78. GCTCGGATAA  1.0306 ± 0.00026
79. GCTCTATGTA  1.03 ± 0.014
80. GCGTGATAGA  1.04 ± 0.017
81. GCTCTGAGTA  1.04 ± 0.073
82. GCGTGGAGGA  1.05 ± 0.026
83. GCGTGGGGAA  1.07 ± 0.036
84. GCTGATACTT  1.07 ± 0.02
85. GCTAGCGGTC  1.08 ± 0.02
86. GCGTCCAGTT  1.09 ± 0.12
87. GCTACCGGTG  1.1 ± 0.072
88. GCTAGGTGAC  1.1 ± 0.037
89. GCTAGGTGTA  1.12 ± 0.043
90. GCTCCGGGCG  1.13 ± 0.075
91. GCTGCGACCA  1.131 ± 0.0024
92. GCTCCAGTTA  1.178 ± 0.0045
93. GCGTCCGGGA  1.21 ± 0.092
94. GCTCGTGATA  1.21 ± 0.05
95. GCTGGCAGAC  1.23 ± 0.032
96. GCTCCCGGGG  1.24 ± 0.12
97. GCTGAAGGTT  1.25 ± 0.36
98. GCTCCTACGA  1.46 ± 0.046
99. GCTCTGGCAA  1.57 ± 0.07
100. GCTCCCAGGA  1.92 ± 0.026
